Laboratory results from patent US20130136718A1.
Where two headings read alike, the source gives them in different places.

How the values were obtained:
CD20 (human) [1] = target: CD20 (human) (UniProt P11836); assay: cell-based or functional assay
CD20 (human) [2] = target: CD20 (human) (UniProt P11836); assay: cell-based or functional assay; remark: listed apart in the source

CD20 (human), sequence (P11836 whole entry): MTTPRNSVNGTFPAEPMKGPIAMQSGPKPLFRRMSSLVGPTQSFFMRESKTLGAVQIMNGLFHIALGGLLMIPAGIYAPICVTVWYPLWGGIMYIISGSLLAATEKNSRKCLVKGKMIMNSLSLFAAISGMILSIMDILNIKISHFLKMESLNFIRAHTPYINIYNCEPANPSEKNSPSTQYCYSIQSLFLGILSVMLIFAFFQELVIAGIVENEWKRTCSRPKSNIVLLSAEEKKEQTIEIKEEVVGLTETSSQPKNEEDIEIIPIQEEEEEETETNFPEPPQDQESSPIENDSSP

Substance | in vitro proliferation of Jeko-1 cells, high-concentration response, EC50 (CD20 (human) [1]) [nM] | in vitro proliferation of Daudi cells, potency against non-targeting MAb-IFNα constructs (CD20 (human) [2]) [fold] | in vitro proliferation of Jeko-1 cells, low-concentration response, EC50 (CD20 (human) [2]) [nM] | in vitro proliferation of Jeko-1 cells, potency against 734-2b (CD20 (human) [2]) [fold] | in vitro proliferation of Jeko-1 cells, EC50 (CD20 (human) [1]) [nM] | in vitro proliferation of Jeko-1 cells, EC50 (CD20 (human) [2]) [nM]
20-2b (from UniProt P01563 24-188) | 0.85 | 30 | 0.00097 | 25 | – | –
veltuzumab (antibody) | – | – | – | – | 1.5 | 1
